For one molecule, binding result and Kd results are on record in publication PMC1635332.

What is called Kd is the free concentration of one partner at which half of the binding sites on the other are occupied at equilibrium, for simple one-to-one binding. Read a high Kd as lower affinity.

In one data set the target is T1, GA-1 DNA polymerase (Bacillus phage GA-1, UniProt Q96206 1-578).
T1 sequence: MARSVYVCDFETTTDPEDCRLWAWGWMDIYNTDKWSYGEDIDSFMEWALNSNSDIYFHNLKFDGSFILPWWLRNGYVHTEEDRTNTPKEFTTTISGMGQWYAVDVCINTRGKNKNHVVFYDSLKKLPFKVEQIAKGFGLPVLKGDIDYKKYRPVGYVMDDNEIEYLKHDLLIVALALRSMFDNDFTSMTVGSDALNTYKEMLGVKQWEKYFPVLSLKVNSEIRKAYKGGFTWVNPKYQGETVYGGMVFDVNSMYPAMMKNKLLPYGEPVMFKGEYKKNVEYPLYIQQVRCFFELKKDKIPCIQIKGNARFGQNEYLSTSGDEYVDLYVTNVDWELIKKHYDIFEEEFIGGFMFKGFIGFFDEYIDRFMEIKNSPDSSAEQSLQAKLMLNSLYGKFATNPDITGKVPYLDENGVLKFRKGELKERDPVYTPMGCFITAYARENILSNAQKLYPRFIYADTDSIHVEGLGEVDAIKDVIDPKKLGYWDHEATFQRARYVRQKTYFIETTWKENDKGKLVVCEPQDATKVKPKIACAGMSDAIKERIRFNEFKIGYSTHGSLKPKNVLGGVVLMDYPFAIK
The experiment in a line: EMSA. A general note: A gel shift assay detects complexes by their altered migration in electrophoresis.

Another data set deals with T2, Nf DNA polymerase (Bacillus phage Nf, UniProt B7SSM2 1-572).
T2 sequence: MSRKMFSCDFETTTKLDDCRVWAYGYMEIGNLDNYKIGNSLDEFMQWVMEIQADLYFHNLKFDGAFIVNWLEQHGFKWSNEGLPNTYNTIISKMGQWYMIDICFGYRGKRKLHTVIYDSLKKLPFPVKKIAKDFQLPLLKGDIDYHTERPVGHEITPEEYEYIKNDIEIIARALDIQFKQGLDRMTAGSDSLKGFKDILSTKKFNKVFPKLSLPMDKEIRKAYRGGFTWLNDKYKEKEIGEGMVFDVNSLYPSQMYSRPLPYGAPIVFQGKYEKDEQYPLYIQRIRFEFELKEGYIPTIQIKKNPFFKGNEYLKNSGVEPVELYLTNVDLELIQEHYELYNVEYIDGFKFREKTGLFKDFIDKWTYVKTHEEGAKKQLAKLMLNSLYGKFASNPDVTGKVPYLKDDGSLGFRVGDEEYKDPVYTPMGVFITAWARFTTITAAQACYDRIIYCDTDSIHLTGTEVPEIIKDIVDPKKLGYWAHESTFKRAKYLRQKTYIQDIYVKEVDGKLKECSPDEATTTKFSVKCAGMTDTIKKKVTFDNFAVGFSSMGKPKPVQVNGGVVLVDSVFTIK
As to the kind of experiment: EMSA.

B1: sp1/sp1c+6 (15/21mer primer/template) (dsDNA)
DNA 1: GATCACAGTGAGTAC
DNA 2: TCTATTGTACTCACTGTGATC
In the case of B1, the binding result with GA-1 DNA polymerase is given as “no binding”. This molecule also showed a Kd with Nf DNA polymerase of 1.5 nM.
